From paper PMC314469, “Protein Interaction Networks by Proteome Peptide Scanning” (PLoS Biology, 2004)

Legend:
Assay in all cases: SPOT array
[1] = molecular target: Sho1 SH3 (SHO1_YEAST), P40073
[2] = molecular target: T1, Boi1 SH3 (BOI1_YEAST), P38041
T1 chain: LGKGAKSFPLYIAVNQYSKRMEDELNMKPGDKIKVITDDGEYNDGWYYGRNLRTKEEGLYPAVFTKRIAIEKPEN

[3] = molecular target: T2, Boi2 SH3 (BOI2_YEAST), P39969
T2 chain: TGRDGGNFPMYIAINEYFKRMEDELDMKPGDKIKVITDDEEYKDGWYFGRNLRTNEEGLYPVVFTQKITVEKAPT

[4] = molecular target: T3, Rvs167 SH3 (RV167_YEAST), P39743
T3 chain: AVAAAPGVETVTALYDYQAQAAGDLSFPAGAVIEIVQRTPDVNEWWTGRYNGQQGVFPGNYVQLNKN

[5] = molecular target: T4, Yhr016c SH3 (YSC84_YEAST), P32793
T4 chain: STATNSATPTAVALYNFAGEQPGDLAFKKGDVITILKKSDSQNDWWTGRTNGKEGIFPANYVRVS

[6] = molecular target: T5, Yfr024 SH3 (LSB3_YEAST), P43603
T5 chain: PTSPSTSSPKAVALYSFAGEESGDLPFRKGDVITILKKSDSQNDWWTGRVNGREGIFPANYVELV

[7] = molecular target: T6, Myo5 SH3 (MYO5_YEAST), Q04439
T6 chain: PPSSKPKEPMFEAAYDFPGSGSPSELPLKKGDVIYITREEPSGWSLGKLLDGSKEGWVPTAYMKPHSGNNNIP

Sho1 SH3 (SHO1_YEAST), P40073, sequence (P40073 295-366): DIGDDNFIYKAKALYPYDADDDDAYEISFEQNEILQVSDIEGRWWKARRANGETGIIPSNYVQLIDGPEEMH

In the case of VTSVKLHPNLPIVF [YOR269W 158-171], the normalised SPOT signal, Boehringer light units (BLU); mean over the file's lines of this peptide [1] is reported as 58.2, the normalised SPOT signal, Boehringer light units (BLU); mean over the file's lines of this peptide [2] is reported as 126 and the normalised SPOT signal, Boehringer light units (BLU); mean over the file's lines of this peptide [3] is reported as 10.5. For the same binder, the normalised SPOT signal, Boehringer light units (BLU); mean over the file's lines of this peptide [4] was 74, the normalised SPOT signal, Boehringer light units (BLU); mean over the file's lines of this peptide [5] was 8.2 and the normalised SPOT signal, Boehringer light units (BLU); mean over the file's lines of this peptide [6] was 93.9. For the same binder, the normalised SPOT signal, Boehringer light units (BLU); mean over the file's lines of this peptide [7] was 137.

For WFDLKGLPRQPEPL [YFL041W 550-563], the normalised SPOT signal, Boehringer light units (BLU); mean over the file's lines of this peptide [1] was 19600, the normalised SPOT signal, Boehringer light units (BLU); mean over the file's lines of this peptide [2] was 78.2 and the normalised SPOT signal, Boehringer light units (BLU); mean over the file's lines of this peptide [3] was 409. It also gave a normalised SPOT signal, Boehringer light units (BLU); mean over the file's lines of this peptide [4] of 278, a normalised SPOT signal, Boehringer light units (BLU); mean over the file's lines of this peptide [5] of 201 and a normalised SPOT signal, Boehringer light units (BLU); mean over the file's lines of this peptide [6] of 4860. For the same binder, the normalised SPOT signal, Boehringer light units (BLU); mean over the file's lines of this peptide [7] was 102.

WLDEKRIPSTPVDY [YGR124W 196-209] gave a normalised SPOT signal, Boehringer light units (BLU); mean over the file's lines of this peptide [1] of 191, a normalised SPOT signal, Boehringer light units (BLU); mean over the file's lines of this peptide [2] of 107 and a normalised SPOT signal, Boehringer light units (BLU); mean over the file's lines of this peptide [3] of 184. The normalised SPOT signal, Boehringer light units (BLU); mean over the file's lines of this peptide [4] was 177, the normalised SPOT signal, Boehringer light units (BLU); mean over the file's lines of this peptide [5] was 278 and the normalised SPOT signal, Boehringer light units (BLU); mean over the file's lines of this peptide [6] was 3060. The normalised SPOT signal, Boehringer light units (BLU); mean over the file's lines of this peptide [7] was 240.

In the case of VWGPKPVPFQPMDV [YAL060W 292-305], the normalised SPOT signal, Boehringer light units (BLU); mean over the file's lines of this peptide [1] is reported as 24.2, the normalised SPOT signal, Boehringer light units (BLU); mean over the file's lines of this peptide [2] is reported as 479 and the normalised SPOT signal, Boehringer light units (BLU); mean over the file's lines of this peptide [3] is reported as 247. The normalised SPOT signal, Boehringer light units (BLU); mean over the file's lines of this peptide [4] was 112, the normalised SPOT signal, Boehringer light units (BLU); mean over the file's lines of this peptide [5] was 257 and the normalised SPOT signal, Boehringer light units (BLU); mean over the file's lines of this peptide [6] was 1000. For the same binder, the normalised SPOT signal, Boehringer light units (BLU); mean over the file's lines of this peptide [7] was 96.9.

With WENFKEEPGEPLSR [YMR227C 326-339] the normalised SPOT signal, Boehringer light units (BLU); mean over the file's lines of this peptide [1] was 38.9, the normalised SPOT signal, Boehringer light units (BLU); mean over the file's lines of this peptide [2] was 104 and the normalised SPOT signal, Boehringer light units (BLU); mean over the file's lines of this peptide [3] was 81.2. It also gave a normalised SPOT signal, Boehringer light units (BLU); mean over the file's lines of this peptide [4] of 82, a normalised SPOT signal, Boehringer light units (BLU); mean over the file's lines of this peptide [5] of 140 and a normalised SPOT signal, Boehringer light units (BLU); mean over the file's lines of this peptide [6] of 2790. The normalised SPOT signal, Boehringer light units (BLU); mean over the file's lines of this peptide [7] was 96.8.

Binder VVPERVKPAPPVSR [YPR171W 231-244] has a normalised SPOT signal, Boehringer light units (BLU); mean over the file's lines of this peptide [1] of 43, a normalised SPOT signal, Boehringer light units (BLU); mean over the file's lines of this peptide [2] of 2710 and a normalised SPOT signal, Boehringer light units (BLU); mean over the file's lines of this peptide [3] of 51.5. The normalised SPOT signal, Boehringer light units (BLU); mean over the file's lines of this peptide [4] was 53.2, the normalised SPOT signal, Boehringer light units (BLU); mean over the file's lines of this peptide [5] was 88 and the normalised SPOT signal, Boehringer light units (BLU); mean over the file's lines of this peptide [6] was 479. For the same binder, the normalised SPOT signal, Boehringer light units (BLU); mean over the file's lines of this peptide [7] was 150.

With VYRRKSIPFAPHQI [YFR032C 169-182] the normalised SPOT signal, Boehringer light units (BLU); mean over the file's lines of this peptide [1] was 135, the normalised SPOT signal, Boehringer light units (BLU); mean over the file's lines of this peptide [2] was 2560 and the normalised SPOT signal, Boehringer light units (BLU); mean over the file's lines of this peptide [3] was 47. For the same binder, the normalised SPOT signal, Boehringer light units (BLU); mean over the file's lines of this peptide [4] was 138, the normalised SPOT signal, Boehringer light units (BLU); mean over the file's lines of this peptide [5] was 70.7 and the normalised SPOT signal, Boehringer light units (BLU); mean over the file's lines of this peptide [6] was 183. The normalised SPOT signal, Boehringer light units (BLU); mean over the file's lines of this peptide [7] was 383.

Work on WRWARDTPRAPGLH [YCR020C 147-160] yielded a normalised SPOT signal, Boehringer light units (BLU); mean over the file's lines of this peptide [1] of 2030, a normalised SPOT signal, Boehringer light units (BLU); mean over the file's lines of this peptide [2] of 46.7 and a normalised SPOT signal, Boehringer light units (BLU); mean over the file's lines of this peptide [3] of 3730. For the same binder, the normalised SPOT signal, Boehringer light units (BLU); mean over the file's lines of this peptide [4] was 1330, the normalised SPOT signal, Boehringer light units (BLU); mean over the file's lines of this peptide [5] was 1970 and the normalised SPOT signal, Boehringer light units (BLU); mean over the file's lines of this peptide [6] was 7740. For the same binder, the normalised SPOT signal, Boehringer light units (BLU); mean over the file's lines of this peptide [7] was 2100.
